In general, Kd refers to the constant that tells how readily two partners part at equilibrium. Usually koff stands for a measure of how fast the partners let go of each other. The term kon denotes the rate constant with which the complex forms. What is called EC50 (read off the curve) is the concentration needed to bring the measured effect to its halfway point.

Consider two molecules from patent publication US20250075006A1 (SHANDONG SIMCERE BIOPHARMACEUTICAL, published 2025).

The target of assay [1] is T1, Human GUCY2C ECD (his-tagged human GUCY2C protein extracellular domain fusion protein) (human, UniProt P25092 24-430).
T1 construct: also called human GUCY2C-his; human GUCY2C-His
Put plainly: SPR Biacore, antibody on Protein A, antigen injected. On the procedure:
The strength of antibody-antigen binding was assayed with a BIAcore 8K instrument using a Protein A capture method. First, Protein A was immobilized onto a CM4 chip (purchased from GE, BR-1005-34) using an amino coupling method. According to the instruction of the Amine Coupling Kit (purchased from GE, BR100633), NHS and EDC were mixed with HBS-EP+pH 7.4 as a mobile phase to activate the chip for about 600 s; the Protein A was diluted to 50 μg/mL with 10 mM sodium acetate (pH 4.5) and injected for 600 s, and finally, the remaining activated sites were blocked with ethanolamine. Then, the affinity of the antibody for the antigen was assayed using a multi-cycle kinetic method; in each cycle, first, the antibody to be tested was captured using the Protein A chip, and then a single concentration of antigen protein was injected. The association and dissociation processes of the antibody with the antigen protein were recorded, and finally, the chip was regenerated using Glycine pH 1.5, wherein the mobile phase was HBS-EP+(10 mM HEPES, 150 mM NaCl, 3 mM EDTA, 0.05% surfactant P20), the flow rate was 30 μL/min, the regeneration time was 30 s, and the assay temperature was 25° C. Finally, according to a 1:1 binding model, the data were analyzed, and the antibody-antigen binding kinetics parameters, including the association rate constant Ka, the dissociation rate constant Kd, the equilibrium dissociation constant KD, and the maximum binding signal Rmax, were fitted.
The association rate (Ka), dissociation rate (Kd), and binding affinity (KD) of the recombinant antibodies Lab306-huFc, Lab322-huFc, and Lab323-huFc with the human GUCY2C protein are shown in Table 5. The positive control antibody has good binding activity at the protein level, but has very weak binding at the cellular level. Lab322-huFc and Lab323-huFc, although weak in affinity, bind well to the cellular level, presumably due to differences in the conformation of the proteins and proteins at the viable cellular level.
In general terms: Surface plasmon resonance follows binding to a sensor surface in real time, without labels.

The target of assay [2] is T2, Cyno GUCY2C ECD (his-tagged cynomolgus monkey GUCY2C protein extracellular domain fusion protein) (cynomolgus monkey, UniProt P25092 24-430 (human entry)).
T2 construct: also called monkey GUCY2C-his; monkey GUCY2C-His
T2 chain: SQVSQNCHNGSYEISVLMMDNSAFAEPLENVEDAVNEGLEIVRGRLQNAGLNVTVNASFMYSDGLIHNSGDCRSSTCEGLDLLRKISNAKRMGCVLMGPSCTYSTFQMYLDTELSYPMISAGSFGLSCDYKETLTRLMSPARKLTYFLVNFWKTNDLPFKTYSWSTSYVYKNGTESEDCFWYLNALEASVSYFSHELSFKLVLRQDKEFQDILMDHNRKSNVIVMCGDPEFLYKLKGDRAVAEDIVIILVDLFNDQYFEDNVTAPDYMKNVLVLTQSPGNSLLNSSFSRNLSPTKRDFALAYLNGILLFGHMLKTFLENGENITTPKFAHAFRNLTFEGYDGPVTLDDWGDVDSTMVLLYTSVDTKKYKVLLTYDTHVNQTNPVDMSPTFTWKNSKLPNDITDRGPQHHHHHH
Put plainly: BLI Gator, antibody on anti-human Fc probe, antigen in solution. On the procedure:
(§1) Next, we measured the affinity of the recombinant antibody by another method, and the specific procedures were as follows: the binding strength of the antibody to the antigen was assayed by acquiring and analyzing the signal change of the reflection interference spectrum on the surface of the optical probe by using thin film interference technology. First, the probe was equilibrated for 300 s with HBS-T+pH 7.4 (0.02% tween) as the mobile phase. 2 μg/mL of the antibody to be tested was captured by an anti-human FC probe (purchased from ProbeLife, PL168-160003) for 240 s, and then antigen proteins with the concentration of 200 nM and diluted two-fold were injected. Kon for 300 s and Koff for 600 s. The association and dissociation processes of the antibody with the antigen protein were recorded, and finally, the chip was regenerated using Glycine pH 2.0 (purchased from GE), wherein the mobile phase was HBS-T+pH 7.4 (0.02% tween), the regeneration time was 5 s, and the assay temperature was 30° C. Finally, according to a 1:1 binding model, the data were analyzed, and the antibody-antigen binding kinetics parameters, including the association rate constant Ka, the dissociation rate constant Kd, the equilibrium dissociation constant KD, and the maximum binding signal Rmax, were fitted. The association rate (Ka), dissociation rate (Kd), and binding affinity (KD) of the recombinant antibodies with the human GUCY2C and monkey GUCY2C proteins are shown in Table 6.
(§2) After the finally obtained various humanized antibodies were expressed and purified, the affinities of the humanized antibodies for the human and monkey GUCY2C proteins were separately assayed according to the method in Example 4.6.

Assay [3] addresses T1, Human GUCY2C ECD (his-tagged human …). The description is as above. As to the method:
as §1, §2

Assay [4] shares this target. Put plainly: ELISA, plate coated with human GUCY2C-his, OD450. On the procedure:
To assay the binding activity of the humanized antibodies to human GUCY2C-his protein, a human GUCY2C-his protein was diluted with PBS to a final concentration of 2 μg/mL and then added to a 96-well ELISA plate at 50 μL/well. The plate was sealed with a plastic film and incubated at 4° C. overnight. The next day, the plate was washed 2 times with PBST, and a blocking buffer [PBS+2% (w/w) BSA] was added for blocking at room temperature for 2 h. The blocking buffer was discarded, and the plate was washed 2 times with PBST. An antibody to be tested or a control antibody diluted in a 1:3 gradient from a starting concentration of 100 nM was added at 50 μL/well. After incubation at 37° C. for 1 h, the plate was washed 3 times with PBST. A horseradish peroxidase (HRP)—labeled secondary antibody (purchased from Merck, Cat. No. AP113P) was added for incubation at 37° C. for 1 h, and the plate was washed 5 times with PBST. A TMB substrate was added at 50 µL/well for incubation at room temperature for 5-10 min, and then a stop solution (1.0 M HCl) was added at 50 μL/well. OD450 nm values were read using an ELISA plate reader (Multimode Plate Reader, EnSight, purchased from Perkin Elmer).
In general terms: An ELISA detects its analyte on a solid surface through an enzyme-linked reagent.

T1 sequence (P25092 other isoform, or with tags, fused parts or gaps): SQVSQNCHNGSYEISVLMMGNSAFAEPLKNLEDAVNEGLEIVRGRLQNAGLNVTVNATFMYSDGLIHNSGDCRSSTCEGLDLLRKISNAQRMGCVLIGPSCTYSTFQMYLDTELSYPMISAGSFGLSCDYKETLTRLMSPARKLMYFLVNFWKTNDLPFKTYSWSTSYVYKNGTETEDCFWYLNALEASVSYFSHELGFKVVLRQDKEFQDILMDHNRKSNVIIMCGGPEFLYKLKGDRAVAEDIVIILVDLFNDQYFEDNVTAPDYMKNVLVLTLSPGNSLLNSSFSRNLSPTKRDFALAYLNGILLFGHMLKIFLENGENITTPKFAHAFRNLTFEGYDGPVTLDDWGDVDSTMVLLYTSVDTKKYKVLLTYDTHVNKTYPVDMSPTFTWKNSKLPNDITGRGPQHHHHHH

B1: 5F9-hIgG1 (antibody, V domains shown)
VH: QVQLQQWGAGLLKPSETLSLTCAVFGGSFSGYYWSWIRQPPGKGLEWIGEINHRGNTNDNPSLKSRVTISVDTSKNQFALKLSSVTAADTAVYYCARERGYTYGNFDHWGQGTLVTVSS
VL: EIVMTQSPATLSVSPGERATLSCRASQSVSRNLAWYQQKPGQAPRLLIYGASTRATGIPARFSGSGSGTEFTLTIGSLQSEDFAVYYCQQYKTWPRTFGQGTNVEIKR
notes: also called positive control antibody
In assay [1], B1 gave a Kd of 2.19 nM, a koff of 0.00028 s⁻¹ and a kon of 128000 M⁻¹ s⁻¹. In assay [2], this molecule registered a Kd of 0.998 nM, a koff of 0.000486 s⁻¹ and a kon of 487000 M⁻¹ s⁻¹. Further, in assay [3], binding was put at a Kd of 1.14 nM, the off-rate constant (koff) is 0.000448 s⁻¹ and the kon worked out at 391000 M⁻¹ s⁻¹. The “EC50 (read off the curve)” value in assay [4] was ~0.04 nM.

B2: PF1608-hIgG1 (antibody, V domains shown)
VH: EVQLVESGGGLVQPGGSLRLSCAASGFTFSSYWMHWVRQAPGKGLEWIGEIKPSNELTNVHEKFKDRFTISVDKAKNSAYLQMNSLRAEDTAVYYCTRTITTTEGYWFFDVWGQGTLVTVSS
VL: DIQLTQSPSSLSASVGDRVTITCRASESVDYYGSSLLQWYQQKPGKAPKLLIYAASKLASGVPSRFSGSGSGTDFTLTISSLQPEDFATYYCQQTRKAYTFGQGTKLEIKR
notes: also called PF1608-hlgG1; positive control antibody
For the molecule B2, in assay [1], binding was put at a Kd of 1.61 nM, the koff was 0.000235 s⁻¹ and the kon was determined as 146000 M⁻¹ s⁻¹. In assay [2], binding was put at a Kd of 0.256 nM, the koff is 0.000138 s⁻¹ and the kon worked out at 540000 M⁻¹ s⁻¹. For the same molecule, in assay [3], the Kd turned out to be 0.494 nM, the koff turned out to be 0.000197 s⁻¹ and the kon was 400000 M⁻¹ s⁻¹. The half-maximal effective concentration (EC50 (read off the curve)) in assay [4] was ~0.05 nM.
